Test results as given in US20070105796.

Biological target: HSP27 (small heat shock protein 27), P04792
Sequence (P04792 whole entry): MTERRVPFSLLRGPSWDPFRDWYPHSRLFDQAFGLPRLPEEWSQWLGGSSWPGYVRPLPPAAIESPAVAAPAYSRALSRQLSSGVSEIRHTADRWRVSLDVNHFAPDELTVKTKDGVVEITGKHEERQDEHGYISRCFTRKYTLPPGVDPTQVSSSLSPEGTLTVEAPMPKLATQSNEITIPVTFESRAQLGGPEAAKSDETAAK

Row | Protein | kinase activity (immune-complex kinase assay, phosphorylation of HSP27) | kinase activity (phosphorylation of HSP27 with [gamma-32P]ATP, autoradiography)
1 | N-terminal HA-tagged inactive MAPKAPK3 (T201A/T313A) (protein) MDGETAEEQGGPVPPPVAPGGPGLGGAPGGRREPKKYAVTDDYQLSKQVLGLGVNGKVLECFHRRTGQKCALKLLYDSPKARQEVDHHWQASGGPHIVCILDVYENMHHGKRCLLIIMECMEGGELFSRIQERGDQAFTEREAAEIMRDIGTAIQFLHSHNIAHRDVKPENLLYTSKEKDAVLKLTDFGFAKETTQNALQAPCYTPYYVAPEVLGPEKYDKSCDMWSLGVIMYILLCGFPPFYSNTGQAISPGMKRRIRLGQYGFPNPEWSEVSEDAKQLIRLLLKTDPTERLTITQFMNHPWINQSMVVPQAPLHTARVLQEDKDHWDEVKEEMTSALATMRVDYDQVKIKDLKTSNNRLLNKRRKKQAGSSSASQGCNNQ | the kinase activity was observed only in an active MAPKAPK3 | 
2 | N-terminal HA-tagged active MAPKAPK3 (T201E/T313E) (protein) MDGETAEEQGGPVPPPVAPGGPGLGGAPGGRREPKKYAVTDDYQLSKQVLGLGVNGKVLECFHRRTGQKCALKLLYDSPKARQEVDHHWQASGGPHIVCILDVYENMHHGKRCLLIIMECMEGGELFSRIQERGDQAFTEREAAEIMRDIGTAIQFLHSHNIAHRDVKPENLLYTSKEKDAVLKLTDFGFAKETTQNALQEPCYTPYYVAPEVLGPEKYDKSCDMWSLGVIMYILLCGFPPFYSNTGQAISPGMKRRIRLGQYGFPNPEWSEVSEDAKQLIRLLLKTDPTERLTITQFMNHPWINQSMVVPQEPLHTARVLQEDKDHWDEVKEEMTSALATMRVDYDQVKIKDLKTSNNRLLNKRRKKQAGSSSASQGCNNQ | the kinase activity was observed only in an active MAPKAPK3 | 
3 | GST fusion inactive MAPKAPK3 (T201A/T313A) (protein) MDGETAEEQGGPVPPPVAPGGPGLGGAPGGRREPKKYAVTDDYQLSKQVLGLGVNGKVLECFHRRTGQKCALKLLYDSPKARQEVDHHWQASGGPHIVCILDVYENMHHGKRCLLIIMECMEGGELFSRIQERGDQAFTEREAAEIMRDIGTAIQFLHSHNIAHRDVKPENLLYTSKEKDAVLKLTDFGFAKETTQNALQAPCYTPYYVAPEVLGPEKYDKSCDMWSLGVIMYILLCGFPPFYSNTGQAISPGMKRRIRLGQYGFPNPEWSEVSEDAKQLIRLLLKTDPTERLTITQFMNHPWINQSMVVPQAPLHTARVLQEDKDHWDEVKEEMTSALATMRVDYDQVKIKDLKTSNNRLLNKRRKKQAGSSSASQGCNNQ |  | the kinase activity was observed only in an active MAPKAPK3
4 | GST fusion active MAPKAPK3 (T201E/T313E) (protein) MDGETAEEQGGPVPPPVAPGGPGLGGAPGGRREPKKYAVTDDYQLSKQVLGLGVNGKVLECFHRRTGQKCALKLLYDSPKARQEVDHHWQASGGPHIVCILDVYENMHHGKRCLLIIMECMEGGELFSRIQERGDQAFTEREAAEIMRDIGTAIQFLHSHNIAHRDVKPENLLYTSKEKDAVLKLTDFGFAKETTQNALQEPCYTPYYVAPEVLGPEKYDKSCDMWSLGVIMYILLCGFPPFYSNTGQAISPGMKRRIRLGQYGFPNPEWSEVSEDAKQLIRLLLKTDPTERLTITQFMNHPWINQSMVVPQEPLHTARVLQEDKDHWDEVKEEMTSALATMRVDYDQVKIKDLKTSNNRLLNKRRKKQAGSSSASQGCNNQ |  | the kinase activity was observed only in an active MAPKAPK3
5 | GST fusion MAPKAPK3 (N-terminal GST fusion human MAPKAPK3) (protein) MDGETAEEQGGPVPPPVAPGGPGLGGAPGGRREPKKYAVTDDYQLSKQVLGLGVNGKVLECFHRRTGQKCALKLLYDSPKARQEVDHHWQASGGPHIVCILDVYENMHHGKRCLLIIMECMEGGELFSRIQERGDQAFTEREAAEIMRDIGTAIQFLHSHNIAHRDVKPENLLYTSKEKDAVLKLTDFGFAKETTQNALQTPCYTPYYVAPEVLGPEKYDKSCDMWSLGVIMYILLCGFPPFYSNTGQAISPGMKRRIRLGQYGFPNPEWSEVSEDAKQLIRLLLKTDPTERLTITQFMNHPWINQSMVVPQTPLHTARVLQEDKDHWDEVKEEMTSALATMRVDYDQVKIKDLKTSNNRLLNKRRKKQAGSSSASQGCNNQ |  | the kinase activity was observed only in an active MAPKAPK3
6 | N-terminal HA-tagged MAPKAPK3 (protein) MDGETAEEQGGPVPPPVAPGGPGLGGAPGGRREPKKYAVTDDYQLSKQVLGLGVNGKVLECFHRRTGQKCALKLLYDSPKARQEVDHHWQASGGPHIVCILDVYENMHHGKRCLLIIMECMEGGELFSRIQERGDQAFTEREAAEIMRDIGTAIQFLHSHNIAHRDVKPENLLYTSKEKDAVLKLTDFGFAKETTQNALQTPCYTPYYVAPEVLGPEKYDKSCDMWSLGVIMYILLCGFPPFYSNTGQAISPGMKRRIRLGQYGFPNPEWSEVSEDAKQLIRLLLKTDPTERLTITQFMNHPWINQSMVVPQTPLHTARVLQEDKDHWDEVKEEMTSALATMRVDYDQVKIKDLKTSNNRLLNKRRKKQAGSSSASQGCNNQ | the kinase activity was observed only in an active MAPKAPK3 | 
